Values quoted from earlier work, collected in PMC10955226.

Biological target: WWC1 WW tandem (Homo sapiens) (UniProt Q8IX03)
Sequence of UniProt Q8IX03 (Q8IX03 6-86): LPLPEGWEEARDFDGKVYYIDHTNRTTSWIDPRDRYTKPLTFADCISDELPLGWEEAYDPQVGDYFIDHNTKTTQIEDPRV

## JCAD PPxY motifs (from UniProt Q9P266)
  Kd: 58 nM
